T1: human TL1A (Fitzgerald #30R-AT070) (human, UniProt O95150 72-251, limits assumed)
T1 construct: Coated on the ELISA plate at 1 ug/mL; also called TNFSF15
T1 sequence (looked up): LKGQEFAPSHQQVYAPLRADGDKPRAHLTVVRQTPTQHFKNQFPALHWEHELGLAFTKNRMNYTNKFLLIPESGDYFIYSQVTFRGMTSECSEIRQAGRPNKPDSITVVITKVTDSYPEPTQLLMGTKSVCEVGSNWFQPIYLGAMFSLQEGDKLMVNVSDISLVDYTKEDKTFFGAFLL


Biological target: T1, human TL1A (Fitzgerald #30R-AT070)
Test: ELISA titration, coated human TL1A, culture supernatant

Binder | Kd [nM]
A152 (antibody, human IgG1, V domains shown, human IgG1/kappa (pFuse vectors), culture supernatant) VH: QVQLVQSGAEVKKPGASVKVSCKASGFDIQDTYMHWVRQAPGQGLEWMGRIEPASGHIKYDPKFQGRATITTDTSTSTVYMELSSLRSEDTAVYYCARSGGLPDWWGQGTTVTVSS VL: EIVLTQSPGTLSLSPGERATLSCRASSSVSYMYWYQQKPGQAPRPLIYATSNLASGIPDRFSGSGSGTDFTLTISRLEPEDFAVYYCQQWEGNPRTFGGGTKLEIK | 0.058
A36 (antibody, human IgG1, V domains shown, human IgG1/kappa (pFuse vectors), culture supernatant) VH: QVQLVQSGAEVKKPGASVKVSCKASGFDIQDTYMHWVRQAPGQGLEWIGRIDPASGHTKYDPKFQVRATITTDTSTSTAYLELSSLRSEDTAVYYCARSGGLPDVWGQGTTVTVSS VL: EIVLTQSPGTLSASPGERATMSCRASSSVSYMYWYQQKPGQAPRPWIYATSNLASGVPDRFSGSGSGTDYTLTISRVEPEDFAVYYCQQWSGNPRTFGGGTKLEIK | < 0.05
A30 (antibody, human IgG1, V domains shown, human IgG1/kappa (pFuse vectors), culture supernatant) VH: QVQLVQSGAEVKKPGASVKVSCKASGFDIQDTYMHWVKQRPGQGLEWIGRIDPASGHTKYDPKFQVRATITTDTSTSTAYLELSSLRSEDTAVYYCARSGGLPDVWGQGTTVTVSS VL: EIVLTQSPGTLSLSPGERATLSCRASSSVSYMYWYQQKPGQAPRLLIYATSNLASGIPDRFSGSGSGTDFTLTISRLEPEDFAVYYCQQWKGNPRTFGGGTKLEIK | 0.077
A50 (antibody, human IgG1, V domains shown, human IgG1/kappa (pFuse vectors), culture supernatant) VH: QVQLVQSGAEVKKPGASVKVSCKASGFDIQDTYMHWVKQRPGQGLEWIGRIDPASGHTKYDPKFQVRATITTDTSTSTAYLELSSLRSEDTAVYYCARSGGLPDVWGQGTTVTVSS VL: EIVLTQSPGTLSASPGERATMSCRASSSVSYMYWYQQKPGQAPRPWIYATSNLASGVPDRFSGSGSGTDFTLTISRVEPEDFAVYYCQQWSGNPRTFGGGTKLEIK | 0.019
A39 (antibody, human IgG1, V domains shown, human IgG1/kappa (pFuse vectors), culture supernatant) VH: QVQLVQSGAEVKKPGASVKVSCKASGFDIQDTYMHWVKQRPGQGLEWIGRIDPASGHTKYDPKFQVRATITTDTSTSTAYMELSSLRSEDTAVYYCARSGGLPDVWGQGTTVTVSS VL: EIVLTQSPGTLSASPGERATMSCRASSSVSYMYWYQQKPGQAPRPWIYATSNLASGVPDRFSGSGSGTDYTLTISRVEPEDFAVYYCQQWSGNPRTFGGGTKLEIK | 0.125
A47 (antibody, human IgG1, V domains shown, human IgG1/kappa (pFuse vectors), culture supernatant) VH: QVQLVQSGAEVKKPGASVKVSCKASGFDIQDTYMHWVKQRPGQGLEWIGRIDPASGHTKYDPKFQVRVTMTRDTSTSTAYLELSSLRSEDTAVYYCARSGGLPDVWGQGTTVTVSS VL: EIVLTQSPGTLSASPGERATMSCRASSSVSYMYWYQQKPGQAPRPWIYATSNLASGVPDRFSGSGSGTDYTLTISRVEPEDFAVYYCQQWSGNPRTFGGGTKLEIK | 0.082
A34 (antibody, human IgG1, V domains shown, human IgG1/kappa (pFuse vectors), culture supernatant) VH: QVQLVQSGAEVKKPGASVKVSCKASGFDIQDTYMHWVRQRPGQGLEWIGRIDPASGHTKYDPKFQVRATITTDTSTSTAYLELSSLRSEDTAVYYCARSGGLPDVWGQGTTVTVSS VL: EIVLTQSPGTLSASPGERATMSCRASSSVSYMYWYQQKPGQAPRPWIYATSNLASGVPDRFSGSGSGTDYTLTISRVEPEDFAVYYCQQWSGNPRTFGGGTKLEIK | < 0.05
A37 (antibody, human IgG1, V domains shown, human IgG1/kappa (pFuse vectors), culture supernatant) VH: QVQLVQSGAEVKKPGASVKVSCKASGFDIQDTYMHWVKQRPGQGLEWMGRIDPASGHTKYDPKFQVRATITTDTSTSTAYLELSSLRSEDTAVYYCARSGGLPDVWGQGTTVTVSS VL: EIVLTQSPGTLSASPGERATMSCRASSSVSYMYWYQQKPGQAPRPWIYATSNLASGVPDRFSGSGSGTDYTLTISRVEPEDFAVYYCQQWSGNPRTFGGGTKLEIK | 0.034
A40 (antibody, human IgG1, V domains shown, human IgG1/kappa (pFuse vectors), culture supernatant) VH: QVQLVQSGAEVKKPGASVKVSCKASGFDIQDTYMHWVKQRPGQGLEWIGRIDPASGHTKYDPKFQVRATITTDTSTSTVYMELSSLRSEDTAVYYCARSGGLPDVWGQGTTVTVSS VL: EIVLTQSPGTLSASPGERATMSCRASSSVSYMYWYQQKPGQAPRPWIYATSNLASGVPDRFSGSGSGTDYTLTISRVEPEDFAVYYCQQWSGNPRTFGGGTKLEIK | < 0.05
A38 (antibody, human IgG1, V domains shown, human IgG1/kappa (pFuse vectors), culture supernatant) VH: QVQLVQSGAEVKKPGASVKVSCKASGFDIQDTYMHWVKQRPGQGLEWIGRIDPASGHTKYDPKFQVRATITTDTSTSTVYLELSSLRSEDTAVYYCARSGGLPDVWGQGTTVTVSS VL: EIVLTQSPGTLSASPGERATMSCRASSSVSYMYWYQQKPGQAPRPWIYATSNLASGVPDRFSGSGSGTDYTLTISRVEPEDFAVYYCQQWSGNPRTFGGGTKLEIK | 0.103
A51 (antibody, human IgG1, V domains shown, human IgG1/kappa (pFuse vectors), culture supernatant) VH: QVQLVQSGAEVKKPGASVKVSCKASGFDIQDTYMHWVKQRPGQGLEWIGRIDPASGHTKYDPKFQVRATITTDTSTSTAYLELSSLRSEDTAVYYCARSGGLPDVWGQGTTVTVSS VL: EIVLTQSPGTLSASPGERATMSCRASSSVSYMYWYQQKPGQAPRPWIYATSNLASGVPDRFSGSGSGTDYTLTISRLEPEDFAVYYCQQWSGNPRTFGGGTKLEIK | < 0.05
A46 (antibody, human IgG1, V domains shown, human IgG1/kappa (pFuse vectors), culture supernatant) VH: QVQLVQSGAEVKKPGASVKVSCKASGFDIQDTYMHWVKQRPGQGLEWIGRIDPASGHTKYDPKFQVRATMTRDTSTSTAYLELSSLRSEDTAVYYCARSGGLPDVWGQGTTVTVSS VL: EIVLTQSPGTLSASPGERATMSCRASSSVSYMYWYQQKPGQAPRPWIYATSNLASGVPDRFSGSGSGTDYTLTISRVEPEDFAVYYCQQWSGNPRTFGGGTKLEIK | 0.063
A49 (antibody, human IgG1, V domains shown, human IgG1/kappa (pFuse vectors), culture supernatant) VH: QVQLVQSGAEVKKPGASVKVSCKASGFDIQDTYMHWVKQRPGQGLEWIGRIDPASGHTKYDPKFQVRATITTDTSTSTAYLELSSLRSEDTAVYYCARSGGLPDVWGQGTTVTVSS VL: EIVLTQSPGTLSASPGERATMSCRASSSVSYMYWYQQKPGQAPRLLIYATSNLASGVPDRFSGSGSGTDYTLTISRVEPEDFAVYYCQQWSGNPRTFGGGTKLEIK | 0.092
A41 (antibody, human IgG1, V domains shown, human IgG1/kappa (pFuse vectors), culture supernatant) VH: QVQLVQSGAEVKKPGASVKVSCKASGFDIQDTYMHWVKQRPGQGLEWIGRIDPASGHTKYDPKFQVRVTITTDTSTSTAYLELSSLRSEDTAVYYCARSGGLPDVWGQGTTVTVSS VL: EIVLTQSPGTLSASPGERATMSCRASSSVSYMYWYQQKPGQAPRPWIYATSNLASGVPDRFSGSGSGTDYTLTISRVEPEDFAVYYCQQWSGNPRTFGGGTKLEIK | 0.016
A35 (antibody, human IgG1, V domains shown, human IgG1/kappa (pFuse vectors), culture supernatant) VH: QVQLVQSGAEVKKPGASVKVSCKASGFDIQDTYMHWVKQAPGQGLEWIGRIDPASGHTKYDPKFQVRATITTDTSTSTAYLELSSLRSEDTAVYYCARSGGLPDVWGQGTTVTVSS VL: EIVLTQSPGTLSASPGERATMSCRASSSVSYMYWYQQKPGQAPRPWIYATSNLASGVPDRFSGSGSGTDYTLTISRVEPEDFAVYYCQQWSGNPRTFGGGTKLEIK | 0.072
A45 (antibody, human IgG1, V domains shown, human IgG1/kappa (pFuse vectors), culture supernatant) VH: QVQLVQSGAEVKKPGASVKVSCKASGFDIQDTYMHWVKQRPGQGLEWIGRIDPASGHTKYDPKFQVRVTITRDTSTSTAYLELSSLRSEDTAVYYCARSGGLPDVWGQGTTVTVSS VL: EIVLTQSPGTLSASPGERATMSCRASSSVSYMYWYQQKPGQAPRPWIYATSNLASGVPDRFSGSGSGTDYTLTISRVEPEDFAVYYCQQWSGNPRTFGGGTKLEIK | 0.085
A48 (antibody, human IgG1, V domains shown, human IgG1/kappa (pFuse vectors), culture supernatant) VH: QVQLVQSGAEVKKPGASVKVSCKASGFDIQDTYMHWVKQRPGQGLEWIGRIDPASGHTKYDPKFQVRATITTDTSTSTAYLELSSLRSEDTAVYYCARSGGLPDVWGQGTTVTVSS VL: EIVLTQSPGTLSASPGERATLSCRASSSVSYMYWYQQKPGQAPRPWIYATSNLASGVPDRFSGSGSGTDYTLTISRVEPEDFAVYYCQQWSGNPRTFGGGTKLEIK | 0.076
A42 (antibody, human IgG1, V domains shown, human IgG1/kappa (pFuse vectors), culture supernatant) VH: QVQLVQSGAEVKKPGASVKVSCKASGFDIQDTYMHWVKQRPGQGLEWIGRIDPASGHTKYDPKFQVRATMTTDTSTSTAYLELSSLRSEDTAVYYCARSGGLPDVWGQGTTVTVSS VL: EIVLTQSPGTLSASPGERATMSCRASSSVSYMYWYQQKPGQAPRPWIYATSNLASGVPDRFSGSGSGTDYTLTISRVEPEDFAVYYCQQWSGNPRTFGGGTKLEIK | < 0.05
A43 (antibody, human IgG1, V domains shown, human IgG1/kappa (pFuse vectors), culture supernatant) VH: QVQLVQSGAEVKKPGASVKVSCKASGFDIQDTYMHWVKQRPGQGLEWIGRIDPASGHTKYDPKFQVRATITRDTSTSTAYLELSSLRSEDTAVYYCARSGGLPDVWGQGTTVTVSS VL: EIVLTQSPGTLSASPGERATMSCRASSSVSYMYWYQQKPGQAPRPWIYATSNLASGVPDRFSGSGSGTDYTLTISRVEPEDFAVYYCQQWSGNPRTFGGGTKLEIK | 0.051
A155 (antibody, human IgG1, V domains shown, human IgG1/kappa (pFuse vectors), culture supernatant) VH: QVQLVQSGAEVKKPGASVKVSCKASGFDIQDTYMHWVRQAPGQGLEWMGRIEPASGHIKYDPKFQVRVTMTRDTSTSTVYMELSSLRSEDTAVYYCARSGGLPDWWGQGTTVTVSS VL: EIVLTQSPGTLSLSPGERATLSCRASSSVSYMYWYQQKPGQAPRPWIYATSNLASGIPDRFSGSGSGTDFTLTISRLEPEDFAVYYCQQWEGNPRTFGGGTKLEIK | 0.067
A154 (antibody, human IgG1, V domains shown, human IgG1/kappa (pFuse vectors), culture supernatant) VH: QVQLVQSGAEVKKPGASVKVSCKASGFDIQDTYMHWVKQAPGQGLEWMGRIEPASGHIKYDPKFQGRVTMTRDTSTSTVYMELSSLRSEDTAVYYCARSGGLPDWWGQGTTVTVSS VL: EIVLTQSPGTLSLSPGERATLSCRASSSVSYMYWYQQKPGQAPRPWIYATSNLASGIPDRFSGSGSGTDFTLTISRLEPEDFAVYYCQQWEGNPRTFGGGTKLEIK | 0.066
A153 (antibody, human IgG1, V domains shown, human IgG1/kappa (pFuse vectors), culture supernatant) VH: QVQLVQSGAEVKKPGASVKVSCKASGFDIQDTYMHWVRQAPGQGLEWMGRIEPASGHIKYDPKFQGRVTMTRDTSTSTAYMELSSLRSEDTAVYYCARSGGLPDWWGQGTTVTVSS VL: EIVLTQSPGTLSLSPGERATLSCRASSSVSYMYWYQQKPGQAPRPWIYATSNLASGIPDRFSGSGSGTDFTLTISRLEPEDFAVYYCQQWEGNPRTFGGGTKLEIK | 0.049

— patent US20260216326A1 (PROMETHEUS BIOSCIENCES, published 2026)
